# Where no end group is shown, it is not given here. [ ]: non-standard residue; d: D form. Aib = CC(C)(N)C(=O)O
# T1: hGIPR (human, UniProt P48546 22-466, limits assumed)
# T1 sequence (looked up): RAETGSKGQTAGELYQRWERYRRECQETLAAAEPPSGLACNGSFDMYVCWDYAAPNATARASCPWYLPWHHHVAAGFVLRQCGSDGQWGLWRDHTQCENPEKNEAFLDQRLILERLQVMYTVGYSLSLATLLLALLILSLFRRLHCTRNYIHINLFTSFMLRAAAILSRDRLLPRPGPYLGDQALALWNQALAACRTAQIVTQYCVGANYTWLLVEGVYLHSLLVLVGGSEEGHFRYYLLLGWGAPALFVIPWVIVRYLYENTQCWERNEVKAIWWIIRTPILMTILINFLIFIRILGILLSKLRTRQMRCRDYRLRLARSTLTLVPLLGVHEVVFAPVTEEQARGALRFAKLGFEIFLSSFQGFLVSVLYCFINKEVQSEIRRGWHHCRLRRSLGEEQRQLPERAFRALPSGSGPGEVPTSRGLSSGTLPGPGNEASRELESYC
# Legend:
# Test in all cases: cell-based or functional assay
# [1] = target: human GLP-1 receptor (GLP-1R) (human, UniProt P43220 24-463)
# Target sequence in this assay (P43220 24-463): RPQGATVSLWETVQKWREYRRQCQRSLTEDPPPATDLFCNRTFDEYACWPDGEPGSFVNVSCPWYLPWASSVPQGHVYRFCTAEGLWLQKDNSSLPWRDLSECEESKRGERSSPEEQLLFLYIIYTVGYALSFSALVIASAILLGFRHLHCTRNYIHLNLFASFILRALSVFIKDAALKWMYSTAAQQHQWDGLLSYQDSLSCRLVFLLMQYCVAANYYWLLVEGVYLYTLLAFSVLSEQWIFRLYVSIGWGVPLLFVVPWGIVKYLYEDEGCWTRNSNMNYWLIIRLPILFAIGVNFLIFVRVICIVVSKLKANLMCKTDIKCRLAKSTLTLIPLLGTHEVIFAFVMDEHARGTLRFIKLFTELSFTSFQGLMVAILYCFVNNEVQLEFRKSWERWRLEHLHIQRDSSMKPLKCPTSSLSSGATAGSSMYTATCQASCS
# [2] = target: human glucagon receptor (GCGR) (human, UniProt P47871 26-477)
# [3] = target: T2, human GLP-1 receptor (GLP-1R) (human, UniProt P43220 24-463); remark: listed apart in the source
# T2 sequence (P43220 24-463): as above
# [4] = target: T3, human glucagon receptor (GCGR) (human, UniProt P47871 26-477); remark: listed apart in the source
# [5] = target: T2, human GLP-1 receptor (GLP-1R); remark: listed apart in the source
# hGIPR = target: T1, hGIPR
# [6] = target: T3, human glucagon receptor (GCGR); remark: listed apart in the source
Binder,hGLP1 pEC50 (cAMP) mean (n = 9): 11 point curve starting at 500 uM [1],hGCGR pEC50 (cAMP) mean (n = 9): 11 point curve starting at 1 uM [2],GLP-1R pEC 50 [3],GluR pEC 50 [4],"Human in vitro Potency (pEC50), hGLP-1R [5]","Human in vitro Potency (pEC50), hGIPR (hGIPR)","Human in vitro Potency (pEC50), hGCGR [6]"
YSHGTFTSDYSKYLD[Aib]KSAQEFV[Aib]WLEDEPSSGAPPPS-OH (N-terminus assumed; SMILES CC(C)C[C@H](NC(=O)[C@H](Cc1ccc(O)cc1)NC(=O)[C@H](CCCCN)NC(=O)[C@H](CO)NC(=O)[C@H](Cc1ccc(O)cc1)NC(=O)[C@H](CC(=O)O)NC(=O)[C@H](CO)NC(=O)[C@@H](NC(=O)[C@H](Cc1ccccc1)NC(=O)[C@@H](NC(=O)CNC(=O)[C@H](Cc1c[nH]cn1)NC(=O)[C@H](CO)NC(=O)[C@@H](N)Cc1ccc(O)cc1)[C@@H](C)O)[C@@H](C)O)C(=O)N[C@@H](CC(=O)O)C(=O)NC(C)(C)C(=O)N[C@@H](CCCCN)C(=O)N[C@@H](CO)C(=O)N[C@@H](C)C(=O)N[C@@H](CCC(N)=O)C(=O)N[C@@H](CCC(=O)O)C(=O)N[C@@H](Cc1ccccc1)C(=O)N[C@H](C(=O)NC(C)(C)C(=O)N[C@@H](Cc1c[nH]c2ccccc12)C(=O)N[C@@H](CC(C)C)C(=O)N[C@@H](CCC(=O)O)C(=O)N[C@@H](CC(=O)O)C(=O)N[C@@H](CCC(=O)O)C(=O)N1CCC[C@H]1C(=O)N[C@@H](CO)C(=O)N[C@@H](CO)C(=O)NCC(=O)N[C@@H](C)C(=O)N1CCC[C@H]1C(=O)N1CCC[C@H]1C(=O)N1CCC[C@H]1C(=O)N[C@@H](CO)C(=O)O)C(C)C) [Compound A2],5.4 pEC50,11.7 pEC50,–,–,–,–,–
YSQGTFTSDYSKYLDAARAQEFVKWLEDEPKSKSPPPS-NH2 [Compound A3],6.7 pEC50,12.1 pEC50,–,–,–,–,–
YSHGTFTSDYSKYLD[Aib]KRAQEFVIWLEDEPSSGAPPPS-OH (N-terminus assumed; SMILES CC[C@H](C)[C@H](NC(=O)[C@@H](NC(=O)[C@H](Cc1ccccc1)NC(=O)[C@H](CCC(=O)O)NC(=O)[C@H](CCC(N)=O)NC(=O)[C@H](C)NC(=O)[C@H](CCCNC(=N)N)NC(=O)[C@H](CCCCN)NC(=O)C(C)(C)NC(=O)[C@H](CC(=O)O)NC(=O)[C@H](CC(C)C)NC(=O)[C@H](Cc1ccc(O)cc1)NC(=O)[C@H](CCCCN)NC(=O)[C@H](CO)NC(=O)[C@H](Cc1ccc(O)cc1)NC(=O)[C@H](CC(=O)O)NC(=O)[C@H](CO)NC(=O)[C@@H](NC(=O)[C@H](Cc1ccccc1)NC(=O)[C@@H](NC(=O)CNC(=O)[C@H](Cc1c[nH]cn1)NC(=O)[C@H](CO)NC(=O)[C@@H](N)Cc1ccc(O)cc1)[C@@H](C)O)[C@@H](C)O)C(C)C)C(=O)N[C@@H](Cc1c[nH]c2ccccc12)C(=O)N[C@@H](CC(C)C)C(=O)N[C@@H](CCC(=O)O)C(=O)N[C@@H](CC(=O)O)C(=O)N[C@@H](CCC(=O)O)C(=O)N1CCC[C@H]1C(=O)N[C@@H](CO)C(=O)N[C@@H](CO)C(=O)NCC(=O)N[C@@H](C)C(=O)N1CCC[C@H]1C(=O)N1CCC[C@H]1C(=O)N1CCC[C@H]1C(=O)N[C@@H](CO)C(=O)O) [Compound A4],< 5 pEC50,11.8 pEC50,–,–,–,–,–
YSHGTFTSDYSKYLDSARAQEFVKWLEDEPSSGAPPPS-NH2 [Compound A5],5.8 pEC50,11.8 pEC50,–,–,–,–,–
"YSHGTFTSDYSKYLD[Aib]KYAQEFV[Aib]WLEDEPSSGAPPPS-OH (N-terminus assumed; SMILES CC(C)C[C@H](NC(=O)[C@H](Cc1ccc(O)cc1)NC(=O)[C@H](CCCCN)NC(=O)[C@H](CO)NC(=O)[C@H](Cc1ccc(O)cc1)NC(=O)[C@H](CC(=O)O)NC(=O)[C@H](CO)NC(=O)[C@@H](NC(=O)[C@H](Cc1ccccc1)NC(=O)[C@@H](NC(=O)CNC(=O)[C@H](Cc1c[nH]cn1)NC(=O)[C@H](CO)NC(=O)[C@@H](N)Cc1ccc(O)cc1)[C@@H](C)O)[C@@H](C)O)C(=O)N[C@@H](CC(=O)O)C(=O)NC(C)(C)C(=O)N[C@@H](CCCCN)C(=O)N[C@@H](Cc1ccc(O)cc1)C(=O)N[C@@H](C)C(=O)N[C@@H](CCC(N)=O)C(=O)N[C@@H](CCC(=O)O)C(=O)N[C@@H](Cc1ccccc1)C(=O)N[C@H](C(=O)NC(C)(C)C(=O)N[C@@H](Cc1c[nH]c2ccccc12)C(=O)N[C@@H](CC(C)C)C(=O)N[C@@H](CCC(=O)O)C(=O)N[C@@H](CC(=O)O)C(=O)N[C@@H](CCC(=O)O)C(=O)N1CCC[C@H]1C(=O)N[C@@H](CO)C(=O)N[C@@H](CO)C(=O)NCC(=O)N[C@@H](C)C(=O)N1CCC[C@H]1C(=O)N1CCC[C@H]1C(=O)N1CCC[C@H]1C(=O)N[C@@H](CO)C(=O)O)C(C)C) [Compound A1, listing 1 of 2 here]",–,–,< 6 pEC50,10.6 pEC50,5.2 pEC50,< 5 pEC50,12.3 pEC50
"YSHGTFTSDYSKYLD[Aib]KYAQEFV[Aib]WLEDEPSSGAPPPS-OH (N-terminus assumed; SMILES CC(C)C[C@H](NC(=O)[C@H](Cc1ccc(O)cc1)NC(=O)[C@H](CCCCN)NC(=O)[C@H](CO)NC(=O)[C@H](Cc1ccc(O)cc1)NC(=O)[C@H](CC(=O)O)NC(=O)[C@H](CO)NC(=O)[C@@H](NC(=O)[C@H](Cc1ccccc1)NC(=O)[C@@H](NC(=O)CNC(=O)[C@H](Cc1c[nH]cn1)NC(=O)[C@H](CO)NC(=O)[C@@H](N)Cc1ccc(O)cc1)[C@@H](C)O)[C@@H](C)O)C(=O)N[C@@H](CC(=O)O)C(=O)NC(C)(C)C(=O)N[C@@H](CCCCN)C(=O)N[C@@H](Cc1ccc(O)cc1)C(=O)N[C@@H](C)C(=O)N[C@@H](CCC(N)=O)C(=O)N[C@@H](CCC(=O)O)C(=O)N[C@@H](Cc1ccccc1)C(=O)N[C@H](C(=O)NC(C)(C)C(=O)N[C@@H](Cc1c[nH]c2ccccc12)C(=O)N[C@@H](CC(C)C)C(=O)N[C@@H](CCC(=O)O)C(=O)N[C@@H](CC(=O)O)C(=O)N[C@@H](CCC(=O)O)C(=O)N1CCC[C@H]1C(=O)N[C@@H](CO)C(=O)N[C@@H](CO)C(=O)NCC(=O)N[C@@H](C)C(=O)N1CCC[C@H]1C(=O)N1CCC[C@H]1C(=O)N1CCC[C@H]1C(=O)N[C@@H](CO)C(=O)O)C(C)C) [Compound A1, listing 2 of 2 here]",5.2 pEC50,12.3 pEC50,–,–,–,–,–
